Experimental data from patent US5661003A, “Water channel” (Marumo; Fumiaki, priority 1992, dated 1997).

Assays:
[1] = molecular target: T1, WCH-1 water channel (Rattus norvegicus, UniProt P34080); assay: Effect of mercurial sulfhydryl reagent and reducing agent on Pf of WCH-1-injected oocytes; format: cell-based
T1 construct: The longest open reading frame encodes a 271-amino acid protein (Mr 28928); expressed in transfected cells; host or cells: Xenopus laevis oocytes injected with cRNA transcribed from WCH-1 in pSPORT
T1 sequence (P34080 1-271): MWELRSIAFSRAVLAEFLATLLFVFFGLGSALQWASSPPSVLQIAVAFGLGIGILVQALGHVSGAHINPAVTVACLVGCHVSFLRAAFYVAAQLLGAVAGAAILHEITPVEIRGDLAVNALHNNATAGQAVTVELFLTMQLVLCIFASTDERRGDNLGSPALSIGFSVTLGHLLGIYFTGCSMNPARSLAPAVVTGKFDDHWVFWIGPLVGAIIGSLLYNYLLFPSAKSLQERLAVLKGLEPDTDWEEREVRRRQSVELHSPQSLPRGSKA
Description: (§1) Capped cRNA was synthesized from WCH-1 in pSPORT vector using T7 RNA polymerase after linearization of the pSPORT vector. Oocytes were obtained from female Xenopus laevis and prepared as described in Dascal, N. CRC Crit. Rev. Biochem. 22, 317-373 (1987), then injected with […] or 20 ng of WCH-1 RNA (1 μg/μL) and incubated at 18° C. […] Oocytes were viewed by light transmitted through an Olympus phase-contrast microscope and imaged on a Hamamatsu SIT camera connected to ARGUS-200 image processing system. Images were obtained and stored at 20-s intervals.
(§2) Osmotic water permeability (Pf) was determined from an initial slope of a time curve of V/Vo (d (V/Vo)/dt), initial oocyte volume (Vo =9×10^-4 cm^3), initial oocyte surface area (S=0.045 cm^2), the molar volume of water (Vw =18 cm^3 /mol) by:
(§3) Pf=[Vo×d (V/Vo)/dt]/[S×Vw ×(osmin
To examine the effects of mercurial sulfhydryl reagents, oocytes were incubated in Barth's buffer containing 0.3 mM HgCl2 for 5 minutes prior to Pf measurements. The recovery of the inhibition by reducing agents was examined by 15 minutes incubation in a Barth's buffer containing 5 mM β-mercaptoethanol following 5-minute incubation in HgCl2.

[2] = test system: Xenopus oocytes; assay: Osmotic water permeability of Xenopus oocytes injected with WCH-1 RNA (videomicroscopy of osmotic volume increase); format: cell-based, Xenopus laevis
Description: To determine the osmic water permeability of oocytes injected with the WCH-1 transcript, volume increase caused by an imposed osmotic gradient was measured using videomicroscopy (Zhang, R. & Verkman, A. S. Am. J. Physiol. 260, C26-C34 (1991)).
as §1
Oocytes images were processed as described in Zhang, R. & Verkman, A. S. Am. J. Physiol. 260, C26-C34 (1991) and the projection area of the oocytes was calculated by automatic summation. Relative volume (V/Vo) was calculated from the area at time 0 (Ao) and at time t (A) by:
as §2, §3

OCCS [B-mercaptoethanol, β-mercaptoethanol]
Pf in WCH-1-injected oocytes after recovery with reducing agent ([1]; 5 mM mercaptoethanol for 15 minutes following incubation in 0.3 mM HgCl2): 63.1±25.8 ×10^-4 cm/sec

[Cl][Hg][Cl] [HgCl2]
Pf in WCH-1-injected oocytes after incubation in HgCl2 ([1]; 0.3 mM HgCl2, five minutes, Pf without HgCl2 83.9±18.2): 44.5±3.6 ×10^-4 cm/sec

B1: WCH-1: vasopressin-regulated water channel localized in the kidney collecting tubule; expressed in oocytes by injection of its capped cRNA (protein, UniProt P34080 1-271, looked up)
Aquaporin-2: MWELRSIAFSRAVLAEFLATLLFVFFGLGSALQWASSPPSVLQIAVAFGLGIGILVQALGHVSGAHINPAVTVACLVGCHVSFLRAAFYVAAQLLGAVAGAAILHEITPVEIRGDLAVNALHNNATAGQAVTVELFLTMQLVLCIFASTDERRGDNLGSPALSIGFSVTLGHLLGIYFTGCSMNPARSLAPAVVTGKFDDHWVFWIGPLVGAIIGSLLYNYLLFPSAKSLQERLAVLKGLEPDTDWEEREVRRRQSVELHSPQSLPRGSKA
Pf in WCH-1-injected oocytes relative to Pf in water-injected oocytes ([2]; WCH-1-injected vs water-injected oocytes): 3.5 times
Osmotic water permeability (Pf) ([2]; oocytes injected with 20 ng WCH-1 RNA, 24 h incubation, transfer from 200 mOsm to 70 mOsm Barth's buffer, 24° C., mean±SEM): 83.9±18.2 ×10^-4 cm/s
Oocytes ruptured after transfer into the hypotonic solution ([2]; within 10 minutes, none of water-injected oocytes ruptured for more than 60 minutes): ten out of eleven
